Blank lines part the entries; values can stand above or below the binder they belong to.
B1: Sla2ccRTH (Sla2 residues 351-968) (domain or fragment, Saccharomyces cerevisiae, UniProt P33338 351-968, looked up)
chain: ATAQMQPDFWANQQAQFANEQNRLEQERVQQLQQQQAQQELFQQQLQKAQQDMMNMQLQQQNQHQNDLIALTNQYEKDQALLQQYDQRVQQLESEITTMDSTASKQLANKDEQLTALQDQLDVWERKYESLAKLYSQLRQEHLNLLPRFKKLQLKVNSAQESIQKKEQLEHKLKQKDLQMAELVKDRDRARLELERSINNAEADSAAATAAAETMTQDKMNPILDAILESGINTIQESVYNLDSPLSWSGPLTPPTFLLSLLESTSENATEFATSFNNLIVDGLAHGDQTEVIHCVSDFSTSMATLVTNSKAYAVTTLPQEQSDQILTLVKRCAREAQYFFEDLMSENLNQVGDEEKTDIVINANVDMQEKLQELSLAIEPLLNIQSVKSNKETNPHSELVATADKIVKSSEHLRVDVPKPLLSLALMIIDAVVALVKAAIQCQNEIATTTSIPLNQFYLKNSRWTEGLISAAKAVAGATNVLITTASKLITSEDNENTSPEQFIVASKEVAASTIQLVAASRVKTSIHSKAQDKLEHCSKDVTDACRSLGNHVMGMIEDDHSTSQQQQPLDFTSEHTLKTAEMEQQVEILKLEQSLSNARKRLGEIRRHAYYNQDDD
B3: Clathrin Light Chain (CLC), residues 1-233 (natural protein, Saccharomyces cerevisiae, UniProt P17891 1-233, looked up)
chain: MSEKFPPLEDQNIDFTPNDKKDDDTDFLKREAEILGDEFKTEQDDILETEASPAKDDDEIRDFEEQFPDINSANGAVSSDQNGSATVSSGNDNGEADDDFSTFEGANQSTESVKEDRSEVVDQWKQRRAVEIHEKDLKDEELKKELQDEAIKHIDDFYDSYNKKKEQQLEDAAKEAEAFLKKRDEFFGQDNTTWDRALQLINQDDADIIGGRDRSKLKEILLRLKGNAKAPGA
modifications: RED-NHS dye label
B6: Sla1 SH3_3 domain (Sla1 residues 355-414) (domain or fragment, Saccharomyces cerevisiae)
chain: GAMAKKRGIVQYDFMAESQDELTIKSGDKVYILDDKKSKDWWMCQLVDSGKSGLVPAQFIEPVR
modifications: also: RED-NHS dye label, site not given here

What was measured:
[1] = biological target: the molecule itself; assay: mass photometry
[2] = biological target: B1; assay: mass photometry
[3] = biological target: T1, Sla2cc ΔSite1 (Δ515-546) (Saccharomyces cerevisiae, UniProt P33338 296-767, Δ515-546); assay: MST
T1 sequence (looked up): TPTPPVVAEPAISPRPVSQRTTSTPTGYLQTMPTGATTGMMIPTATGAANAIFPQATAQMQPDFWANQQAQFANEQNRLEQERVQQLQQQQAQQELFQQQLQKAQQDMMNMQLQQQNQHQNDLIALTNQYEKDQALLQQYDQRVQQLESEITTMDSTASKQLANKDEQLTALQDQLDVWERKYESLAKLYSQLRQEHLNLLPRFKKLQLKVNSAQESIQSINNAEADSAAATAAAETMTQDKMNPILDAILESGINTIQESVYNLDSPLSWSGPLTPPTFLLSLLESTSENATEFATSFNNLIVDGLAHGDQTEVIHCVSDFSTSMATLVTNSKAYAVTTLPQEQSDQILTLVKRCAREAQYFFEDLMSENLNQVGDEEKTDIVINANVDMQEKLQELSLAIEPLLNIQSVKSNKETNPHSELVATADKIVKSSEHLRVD

[4] = biological target: B3; assay: MST
[5] = biological target: B6; assay: MST
[6] = biological target: T2, Sla2:270-350 (complete IDR of Sla2) (Saccharomyces cerevisiae, UniProt P33338 270-350); assay: MST
T2 sequence (looked up): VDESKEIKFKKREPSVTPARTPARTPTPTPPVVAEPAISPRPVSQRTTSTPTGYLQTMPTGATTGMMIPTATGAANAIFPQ

Binder: B1
stoichiometry N [1]: 2

Binder: B3
binding result [3]: binds

Binder: B6
Kd [6]: 0.9 µM

More lines, now with the values ahead:

stoichiometry N [2]: 1 NusA-CLC per Sla2 dimer
B2: NusA conjugated to CLC (NusA-CLC) (natural protein, Saccharomyces cerevisiae, UniProt P17891 1-233, looked up)
chain: MSEKFPPLEDQNIDFTPNDKKDDDTDFLKREAEILGDEFKTEQDDILETEASPAKDDDEIRDFEEQFPDINSANGAVSSDQNGSATVSSGNDNGEADDDFSTFEGANQSTESVKEDRSEVVDQWKQRRAVEIHEKDLKDEELKKELQDEAIKHIDDFYDSYNKKKEQQLEDAAKEAEAFLKKRDEFFGQDNTTWDRALQLINQDDADIIGGRDRSKLKEILLRLKGNAKAPGA

KD of Site 1 (higher affinity site) [4]: ~0.1 µM
KD of Site 2 (lower affinity site) [4]: 3 µM
B4: Sla2cc (Sla2 residues 296-767), WildType (domain or fragment, Saccharomyces cerevisiae, UniProt P33338 296-767, looked up)
chain: TPTPPVVAEPAISPRPVSQRTTSTPTGYLQTMPTGATTGMMIPTATGAANAIFPQATAQMQPDFWANQQAQFANEQNRLEQERVQQLQQQQAQQELFQQQLQKAQQDMMNMQLQQQNQHQNDLIALTNQYEKDQALLQQYDQRVQQLESEITTMDSTASKQLANKDEQLTALQDQLDVWERKYESLAKLYSQLRQEHLNLLPRFKKLQLKVNSAQESIQKKEQLEHKLKQKDLQMAELVKDRDRARLELERSINNAEADSAAATAAAETMTQDKMNPILDAILESGINTIQESVYNLDSPLSWSGPLTPPTFLLSLLESTSENATEFATSFNNLIVDGLAHGDQTEVIHCVSDFSTSMATLVTNSKAYAVTTLPQEQSDQILTLVKRCAREAQYFFEDLMSENLNQVGDEEKTDIVINANVDMQEKLQELSLAIEPLLNIQSVKSNKETNPHSELVATADKIVKSSEHLRVD
modifications: RED-NHS dye label (only in the MST against CLC:70-140 and Pan1:777-987)

Kd [5]: 81.2 µM
B5: Sla2:283-297 peptide (peptide)
peptide: PVSTPARTPARTPTP

Source: article doi:10.1101/2024.11.14.623549 (bioRxiv, 2024)
